This data set is described as follows: label from the status in PepcDB records.

Data on 31 sequences can be found in a protein production outcome set (Wang et al. 2014).

“RDKYYLITHGSQDPYWTSLFQGAKKAAEELKVDLQILAPPGANDVPKQVQFIESALATYPSGIATTIPSDTAFSKSLQRANKLNIPVIAVDTRPKDKTKNPYLVFLGSDNLLAGKKLGEKALELTPSAKRALVLNPQPGHIGLEKRAYGIKTILQDKGIFFEELDVGTDPNQVQSRVKSYFKIHPETNIIFCLTSQALDPLGQMLLHPDRYDFNYQPQVYSFDKTPNTVSLIHKKLVNYVMDQQPFLMGYLSITQLVLMNRYQLNPVNINTAM”: the protein production entry is given as “not failed”.

Take “REHDFDDLKFEHFLASAAGAFPAFLEVAEKRIIGEGVLRAVKESMRWHRAENVHFGAFLLLVPLISSWDAGGMVDIAEAARNRLRRTDFRDSLSVLEAFRLSNARVVEAGELNLKDRKTEEEIAQKKINLYEWMKMAPEENLIARELVDGFKISIEGAKFLLSFGNSGKAVVELYYHLLSKFPDPLVIAKMGREYAEKITEWAEKARTEEERKELDEKLLKDGANPGTIADLTASSIFLALAEGWR”: the protein production result is “not failed”.

For “REITLDDAALLQRFFVENPEYFHIVHGAAPQPDEARDEIDDALPAGWSYTHKWKIGYFDSEGRLLAFVSIVTDLLAQGVWHIGLFMLATPCHGSSLARQLHAELEAWAAGEGARWLRLSVVQDNARAQGFWNACGYAQVRTRDGIELGRLQHQVRIMIKPL”, the protein production entry is on record as “failed”.

On to “RGNLGQSQKVLIEFVSANPTGPLHVGHGRGAAFGATLGNVLKAAGYDVTLEYYVNDAGRQMNILAVSVWLRYLELAGEPIVFPANGYKGQYVYEIAQEIWSEQGNQFVHPWISVVENLPADEPEGGDKETYIDAIIARAQSLLGKDGFANFHQHALKTVLDDIKDDLQAFGVRFDSWFSEQSLFEDGSIEKGIQALKDRGHTYEREGALWFRATDFGDEKDRVLVRANGQTTYFASDVAYHWNKYDRGFDRVIDIFGADHHGYVTRIKTAVKALGHDESALDVILVQFAILYRGGDRVQMSTRSGSFVTLRELREEVGNDAARYFYVARKPEQHMDFDLDLAKSESSDNPVYYIQYAHARICSVLRQLKERGLKWDKDMGL”, for which the protein production entry is “failed”.

Turning to “RISWVGEAVKTDGKKSYYKKVCIDAETLEVGDCVSVIPDDSSKPLYLARVTALWEDSSNGQMFHAHWFCAGTDTVLGATSDPLELFLVDECEDMQLSYIHSKVKVIYKAPSENWAMEGGMDPESLLEGDDGKTYFYQLWYDQDYARFESPPKTQPTEDNKFKFCVSCARLAEMRQKEIPRVLEQLEDLDSRVLYYSATKNGILYRVGDGVYLPPEAFTFNIKLSSPVKRPRKEPVDEDLYPEHYRKYSDYIKGSNLDAPEPYRIGRIKEIFCPKKSNGRPNETDIKIRVNKFYRPENTHKSTPASYHADINLLYWSDEEAVVDFKAVQGRCTVEYGEDLPECVQVYSMGGPNRFYFLEAYNAKSKSFEDPPNHARSP”, the protein production entry is given as “failed”.

Consider “RKFEGMKTVQLICIKMSCIMLFFVSGYAKGTQEEHTMQFGEEKTTYLLHLPKGYIQGKAYSLVVNFHGLGSAAIKHQHYCQLDAVADKEGFIAVYPQSYHQGWNAGLGFTSYIQGHDDIAYFNALLDTLEAAYSIDKNRIYVTGVSLGGSFTYRIACEMSKRIAAIASVSGLMSDSTLIYCTPERSVPVMHIHGTKDHIMRYTGMKQAFGAEEVVRLWALKDQCENKPDTVFVPNTSKKDHTSSILIKYTHCANGSEVWFYKIYNGGHTWPGAAKAFKLMGRKSKDFNG”, for which the protein production entry was “failed”.

With “RKIFTNKCERAGCRQREMMKLTCERCSRNFCIKHRHPLDHDCSGEGHPTS”, the protein production entry is listed as “not failed”.

Take “RKILDSKAIDLMNALMRLNQIRPGLQYKLLSQSGPVHAPVFTMSVDVDGTTYEASGPSKKTAKLHVAVKVLQAMGYPTGFDADI”: the protein production entry is on record as “not failed”.

Take “RLLRLKLSSLGVLKVFPNRDEAYKDIFKDLVDSNEILLLGYKGNALLSNSDYPSRLEILEEYSRGQKIAIKALLLSPQAKQYVKKRSVELGEKNLHRNHSRDIEDSIVNFRKVKENGILDVECRLFSEALKWSLLFSDKYILVSFYNNKVRVKLSPCFKLRRSSMLGWAFEKHFRDLWEKKSIDAFTSYTRPCVIVVVGGSFTGKSIISNHLSNKYQFSGVLSTDMVRNFFRISTRDRKTYQTSTYRMDDSELNIQKNNVSNMIEQMLEIYRSRREKIIIEGMHLTEDFLRNINKQDCLIIGLDNKRDINDRLDLKMKTTREEVSKKTEDEKKRINEIHYGIIECCKRNNFKVVEFQDIEDAKDKCEHLVEEFFTQRSKR”: the protein production entry is given as “failed”.

“RLPEVAHLLARVHNSELLHRMLRKVGGQSVRPQDFIQQYLQDLPDDLRHHPLMARVLDELRGTAPTLPATDYRVCHGDLNHKNWLLSDRQQLYLVDWDSARFADPASDISMLLCEYVPLSDWQQWLSEYGETMTTALRTRVVWYAKINLLLNIKDNYYRNQYHQMNHEIIFLEELSQYEV”: the protein production entry is “failed”.

Turning to “RLRHCNHHDPHGFYGWHETEAGSVIRTRQVGATQVNLLIDDTSHVMTPIGDDIFAIDLGHRERADYRLEVTWPDQEPQVKADPYYFLPTVG”, the protein production result was “failed”.

As for “RLSAREAIALLSDDFDRLPVAEGAYAPDGPLSWQGYDASRARATERTGEDESVVCGRARIDGTPAVLIAFEFGFLGGSLGERTGDRLEAAYTYARAHRLPVVSLVATGGSRMQEGMLALTQLQRVARQSALTRAAGLPQLAVLRDPTTGGGWATLGAGADVVLALPGVQVGFAGSRVRPPDADPAAYTAQAQLAAGSIDAVVRPQELRETVGLWLALLTAPSTEP”, the protein production entry is listed as “failed”.

For “RMPTRRWAPGTQCITKCEHTRPKPGELAFRKGDVVTILEACENKSWYRVKHHTSGQEGLLAAGALRER”, the protein production result is given as “not failed”.

For “RNYNNPVVLCGFAGSTPTGVLAASYIVETLGMHQVAHLISQHIPPVAVFVGGKLRHPFRIYANNSNTVLVAMCEVPISSAHIYEISNTLMNWIDQVGASEIVIMEGSPANGIPEERPVFAVAEKPKLDKFKKAGIQPADSAIIAGMGGGILNECLVRKITGLSFITPTSVDIPDPGAVLSIIEAINKAYNLKIKTDLLEEQVKALDEQIKKIEEQYKELQEKQKEPQSMYG”, the protein production entry is “not failed”.

In the case of “RPNVERDAQRRVNIRVTDEIVTALNERRIVMAFEPVVQAVSRAPAFHECLVRMKQDDGELLLAPDIVPVAEKLGLIRLVDHRVLELVVAELAAAPGVELSLNISPDTTMDADWWASIESLLGANPGVAERLIVEITETVAIQDLDDVRGFVNRLKNFGARIAIDDFGAGYTSFRNLRNLGVDIVKIDGAFVQNIARSADDRAFVQTLIDLARRLEIKTVAEWVQDEASAIMLRDWGCDYIQGRLIGLA”, the protein production entry is on record as “failed”.

“RRAKALLDFERHDDDELGFRKNDIITIISQKDEHCWVGELNGLRGWFPAKFVEVLDERSKEYSIA”: the protein production entry is “not failed”.

With “RSEIVRLNSLMNDILNNIPVYLFVKDTGNDFRYLYWNKAFAEHSGISVQRAVGSTDADIFPDKKDAEHFREDDLKVMKLGRIEYLENYTTMSGEVRTVTTMKTVVPSGGQHPYIIGVSWDVT”, the protein production entry is listed as “failed”.

With “RTDRTALIDLMQALNQHMTYTQGATEVDTSAAQAFAGRSGVCQDHTHAFLACARSLGVPARYVSGYLCSEDSEHLSSHAWAEAWIDDAWYSFDVTNQLAIPERHLKLAVGLDYLDACPVRGMRRG”, the protein production entry is on record as “failed”.

Consider “RTNRLSAVQSNKMIVRAMERGVSAERLGKALGLSPQTIRQRFRLLNGICAEVVALLGDTDCPANVFNLLRQMKPLRQIEAAELMIGNKNLSVLLAKALLAATPPDQLVMIKKPSQDHQVSAESMARLERELAALQMQIKTVEEDYGPDVLHLTVIKGYLTKLLANAAVVRWLARHQPEYLKEFQSIAELTELPWADNGPEDDLQSTTAEG”, for which the protein production result is “not failed”.

For the sequence “RVGIIVAAHGNSTASSMVEVATELLGSTPIAAVDMPLTVSPSDILECVAEKMKQVDEGEGVLMLVDMGSLAMLESRLEEKTGISIKTISNVTTSMVLDAVRKVNYLNLNLHAIYQSVTKDFIELWERQPAASGKK”, the protein production result is on record as “failed”.

“SAATMKKAAAEDVNVTFEDQQKINKFARNTSRITELKEEIEVKKKQLQNLEDACDDIMLADDDCLMIPYQIGDVFISHSQEETQEMLEEAKKNLQEEIDALESRVESIQRVLADLKVQLYAKFGSNINLEADES”: the protein production entry is on record as “failed”.

On to “SASLLDKAKDFVADKLTAIPKPEGSVTDVDLKDVNRDSVEYLAKVSVTNPYSHSIPICEISFTFHSAGREIGKGKIPDPGSLKAKDMTALDIPVVVSYSILFNLARDVGVDWDIDYELQIGLTIDLPVVGEFTIPISSKGEIKLPTFKDFF”, for which the protein production entry is on record as “failed”.

In the case of “SAVPGGMFAPSLAVGAGFGLNMSQLLPFLPQSMVVLLGMVGFFAGMTRAPMTGFVIVMEMTDTSGMIIPLMATALIAASVSRLVSRRALYDGQVRLFLPQWRTQAGQ”, the protein production entry is on record as “failed”.

“SCEKENIGIEVTPVNAKFIITPVVIDATTGTDVTQSAEISFSKGNGTYEGTPELASESININAKYKGMTGSASVTIPALKAGQFGAKEVTIILSENFFAQEESSNSQIETTKHSGFKNNTSDYWYYITVTYTKKEGSEVIKNDYEGDDSEIKNIIDAYNKGVREDKVTLNDVQVLAHSRFSVFVDYMKTTSVYQIIEKSPKRDGNPVASFTVDSYNTIVSPKNEQIPGHGHAPSHGHGHGHGDDSNAGGGIIIAD”: the protein production entry was “not failed”.

As to “SDESDLPSAMPAVPAFGVEERNMVSGVLTLAERSIRSIMTPRTDVSWVNIDDDAATIRQQLTAAPHSFFPVCRGSLDEVVGIGRAKDLVADLITEGRVRRNRLRDPIIVHESIGILRLMDTLKRSRGQLVLVADEFGAIEGLVTPIDVFEAIAGEFPDEDELPDIVA”, the protein production entry is recorded as “failed”.

In the case of “SDESGMRTYVRTLSFILSKAVADILPGSKLFIEHSLSNGYYCQIKNAHMITPGEIVRIKERMESLIVADIPFRAHCERTEEVAAMFRSMGYEDKADLLETKGMP”, the protein production entry was “failed”.

In the case of “SDNLSSEEIQQRAHQITDESLESTRRILGLAIESQDAGIKTITMLDEQKEQLNRIEEGLDQINKDMRETEKTLTELNKCCGLCVCPCNRTKNFESGKAYKTTWGDGGENSPCNVVSKQPGPVTNGQLQQPTTGAASGGYIKRITNDAREDEMEENLTQVGSILGNLKDMALNIGNEIDAQNPQIKRITDKADTNRDRIDIANARAKKLIDS”, the protein production entry is “not failed”.

As for “SETRSPGLNNMKPQSLQLVLEEQVLALQQQMAENQAASWRKLKNSQEAQQRQATLVRKLQAKVLQYRSWCQELEKRLEATGGPIPQRWENVEEPNLDELLVRLEEEQQRCESLAEVNTQLRLHMEKADVVNKALREDVEKLTVDWK”, the protein production entry is recorded as “failed”.

As for “SFKPVMQKFLHDHVDLQVSALYALQVHCYNSNFPKGMLLRFFVHFYDMEIIEEEAFLAWKEDITQEFPGKGKALFQVNQ”, the protein production entry is reported as “failed”.

For “SGGTLRIYADSLKPNIPYKTILLSTTDTADFAVAESLEKYGLEKENPKDYCIARVMLPPGAQHSDERGAKEIILDDDECPLQIFREWPSDKGILVFQLKRRPP”, the protein production result was “not failed”.

“SGILFMSKVGLRGDRRSEGDEVLDPLRQALDSSMQSHNLYQHPQHLAFHVSAPVASTVQQASGLLGPLPHLSSFALQPAHSLLPPLGSHGAGFQENGAKAES”: the protein production result is “not failed”.
